These results are taken from article PMC11216086, “The structure of TRAF7 coiled-coil trimer provides insight into its function in zebrafish embryonic development” (Journal of Molecular Cell Biology, 2024).

First the molecules themselves.
B1: human TRAF7 ZF-CC (fragment 221–379 aa) (domain or fragment, UniProt Q6Q0C0 221-379, looked up)
chain: DHEGSCDYRPVRCPNNPSCPPLLRMNLEAHLKECEHIKCPHSKYGCTFIGNQDTYETHLETCRFEGLKEFLQQTDDRFHEMHVALAQKDQEIAFLRSMLGKLSEKIDQLEKSLELKFDVLDENQSKLSEDLMEFRRDASMLNDELSHINARLNMGILGS
notes: source: E. coli BL21 (DE3), purified (nickel-NTA, Superdex 200 size-exclusion chromatography)
B2: human TRAF7 CC (270–379 aa) F337S (domain or fragment, UniProt Q6Q0C0 270-379, looked up)
chain: GNQDTYETHLETCRFEGLKEFLQQTDDRFHEMHVALAQKDQEIAFLRSMLGKLSEKIDQLEKSLELKSDVLDENQSKLSEDLMEFRRDASMLNDELSHINARLNMGILGS
notes: as for B1
B3: human TRAF7 CC (270–379 aa) K346E (domain or fragment, UniProt Q6Q0C0 270-379, looked up)
chain: GNQDTYETHLETCRFEGLKEFLQQTDDRFHEMHVALAQKDQEIAFLRSMLGKLSEKIDQLEKSLELKFDVLDENQSELSEDLMEFRRDASMLNDELSHINARLNMGILGS
notes: Variant found in patients with developmental disorders; source: E. coli BL21 (DE3), purified (nickel-NTA, Superdex 200 size-exclusion chromatography)
B4: human TRAF7 CC (270–379 aa) R371G (domain or fragment, UniProt Q6Q0C0 270-379, looked up)
chain: GNQDTYETHLETCRFEGLKEFLQQTDDRFHEMHVALAQKDQEIAFLRSMLGKLSEKIDQLEKSLELKFDVLDENQSKLSEDLMEFRRDASMLNDELSHINAGLNMGILGS
notes: as for B3
B5: human TRAF7 CC (fragment 270–379 aa) (domain or fragment, UniProt Q6Q0C0 270-379, looked up)
chain: GNQDTYETHLETCRFEGLKEFLQQTDDRFHEMHVALAQKDQEIAFLRSMLGKLSEKIDQLEKSLELKFDVLDENQSKLSEDLMEFRRDASMLNDELSHINARLNMGILGS
notes: Cloned in pET32M3C; tags 'were cleaved by HRV 3C protease when needed'; also called TRAF7 CC region; TRAF7 coiled-coil domain; source: E. coli BL21 (DE3), purified (nickel-NTA, Superdex 200 size-exclusion chromatography)
B6: human TRAF7 CC (270–379 aa) I368S (domain or fragment, UniProt Q6Q0C0 270-379, looked up)
chain: GNQDTYETHLETCRFEGLKEFLQQTDDRFHEMHVALAQKDQEIAFLRSMLGKLSEKIDQLEKSLELKFDVLDENQSKLSEDLMEFRRDASMLNDELSHSNARLNMGILGS
notes: as for B1
B7: human TRAF7 CC (270–379 aa) Q310L (domain or fragment, UniProt Q6Q0C0 270-379, looked up)
chain: GNQDTYETHLETCRFEGLKEFLQQTDDRFHEMHVALAQKDLEIAFLRSMLGKLSEKIDQLEKSLELKFDVLDENQSKLSEDLMEFRRDASMLNDELSHINARLNMGILGS
notes: as for B1

This series concerns the molecule itself. Put plainly: SEC-MALS; Superdex 200 gel filtration in 50 mM Tris pH 8.0, 100 mM NaCl, 10 mM EDTA, 1 mM DTT; three-angle light scattering (mini-DAWN TRISTAR) and refractive index detector; self-association (trimer).
Regarding B1, the stoichiometry N (commonly a count of units in the complex or per binding partner) amounted to 3.

Take B2: the binding result is reported as “binds”. B3: the binding result is listed as “binds”.

Take B4: the binding result is on record as “binds”.

As to B5, the “stoichiometry N” value was determined as 3. As for B6, the binding result is listed as “binds”. The same measure, in the same setting: the same measure for B7: “binds”.
